Drawing on US20170252458A1 (EISAI R AND D MANAGEMENT, published 2017), this text covers Kd and EC50 for 28 molecules.

Where “and” joins values, the source holds several entries; their conditions need not be identical. Identical values can stand only once.

Experiment [1] deals with T1, Recombinant human mesothelin (human, UniProt Q13421 296-580, limits assumed).
T1 construct: also called MSLN
The experiment in a line: Biacore T100, antibody captured on anti-human IgG, antigen injected, 1:1 Langmuir. How it is done: Antibody concentrations were adjusted to 2 μg/mL in HBS-P+ buffer (GE Healthcare). Unmodified antibodies, or ADCs, were injected over an anti-human IgG sensor on a BIAcore T100 (GE Healthcare) for 1 min at a flow rate of 10 μL/min. To record the antigen association to the captured antibody, a series of increasing concentrations of antigen was injected for 300 sec at a flow rate of 30 μL/min. […] The dissociation of antigen was monitored for 30 min at the same flow rate. The sensor surface was regenerated by injecting 3 M MgCl₂ for 2×30 sec at a flow rate of 30 μL/min. Sensograms were analyzed with Biacore T100 Evaluation Software using a 1:1 Langmuir binding model.
Binding affinities of the parental antibodies were determined by Biacore analysis, as described above in section 1.6.1. Aggregation levels for all anti-human mesothelin ADCs were determined by SEC-HPLC and the DAR was analyzed using HIC-HPLC. In vitro potency was evaluated using a Crystal Violet cell-based cytotoxicity assay in A3 (A431 stabily transfected with human mesothelin (MSLN), MSLN^hi), OVCAR3 (human ovarian, MSLN^hi), HEC-251 (human endometroid, MSLN^med), H226 (human lung squamous cell mesothelioma, MSLN^lo, and A431 parental (MSLN^neg) cells. The results of the DAR, aggregation, and cytotoxicity analyses are shown in Table 50.

The target in experiment [2] is T2, Recombinant human folate receptor alpha (human, UniProt P15328 25-234).
T2 construct: also called FRA; FR
The experiment in a line: ELISA, recombinant human FRA coated. How it is done:
Coating solution was discarded and the plates were washed three times using 1× PBS with 0.05% Tween-20 (PBST) buffer. Plates were blocked in 300 μL blocking buffer (1% BSA in PBST) at room temperature for 2 hours on an orbital shaker. […] Blocking buffer was discarded and 100 μL/well of diluted antibody was added to the plates. Plates were incubated at room temperature for 2 hours on an orbital shaker. Antibody solution was discarded and plates were washed three times using PBST. 100 μL/well of goat-anti-human IgG (H+L)-HRP (1:10,000 dilution in blocking buffer) solution was added to the plates, and plates were incubated at room temperature for 1 hour on an orbital shaker. Secondary antibody solution was discarded and plates were washed three times using PBST. 100 μL/well of QuantaBlu fluorogenic peroxidase substrate working solution (Thermo, Cat No. 15169) was added to the plates, and plates were incubated at room temperature for 30 min. Fluorescence was read at excitation 325 nm/emission 420 nm using a SpectraMax M5 (Molecular Devices). Data was analyzed using SoftMaxPro 5.4.2 software with 4-parameter fitting.

T1 sequence (Q13421 other isoform, or with tags, fused parts or gaps limits assumed): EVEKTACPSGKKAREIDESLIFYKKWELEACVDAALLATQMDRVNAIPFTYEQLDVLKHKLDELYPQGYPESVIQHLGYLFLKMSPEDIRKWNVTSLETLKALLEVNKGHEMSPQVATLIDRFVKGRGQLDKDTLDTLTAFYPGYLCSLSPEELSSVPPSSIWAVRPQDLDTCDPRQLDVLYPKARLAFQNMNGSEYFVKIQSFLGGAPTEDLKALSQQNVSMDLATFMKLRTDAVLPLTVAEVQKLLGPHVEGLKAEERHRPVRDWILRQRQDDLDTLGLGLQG
T2 sequence (P15328 25-234 limits assumed): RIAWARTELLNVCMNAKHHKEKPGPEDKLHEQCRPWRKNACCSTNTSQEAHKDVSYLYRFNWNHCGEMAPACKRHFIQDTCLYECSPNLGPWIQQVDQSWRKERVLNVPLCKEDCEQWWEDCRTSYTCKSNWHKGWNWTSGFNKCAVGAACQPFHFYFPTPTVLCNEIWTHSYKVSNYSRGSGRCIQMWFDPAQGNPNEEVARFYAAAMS

B1: 346C6-xi (antibody, human IgG1, kappa, V domains shown)
VH: QSVEESGGRLVKPDESLTLTCTASGFSLSSYAMIWVRQAPGEGLEWIGTISTGGITYYASWAKGRFTISKTSTTVDLKITSPTTEDTATYFCARGGYAASSAYYLPYYFDLWGQGTLVTVSS
VL: AAVLTQTPSPVSAAVGGTVTISCQSSQSVYNNNNLAWFQQKPGQPPKLLIYLASTLASGVPSRFSGSGSGTQFTLTISGVQCDDAATYYCLGGCDDDADTFAFGGGTEVVVKR
notes: Rabbit-human chimeric anti-human mesothelin with unpaired cysteine at LCcys80; parental mAb in Biacore
For B1, the Kd in experiment [1] amounted to 1.4 nM.

B2: 111B10-zu (antibody, human IgG1, kappa, V domains shown)
VH: EVQLVESGGGLVQPGGSLRLSCAASGFSLNNYAMSWVRQAPGKGLEWIGSISTGGLAFYANWAKGRFTISRDNSKNTLYLQMNSLRAEDTAVYYCARNGGGSYIFYYFDLWGQGTLVTVSS
VL: DIQMTQSPSSLSASVGDRVTITCQASQSISSYLSWYQQKPGKAPKLLIYSASTLASGVPSRFSGSGSGTDFTLTISSLQCEDAATYYCQSYYDIGTSTFGGGTKVEIKR
notes: Humanized anti-human mesothelin with unpaired cysteine at LCcys80; parental mAb in Biacore; also called 111810 zu
Take B2: the Kd in experiment [1] was 8.5 nM.

B3: 201C15-zu (antibody, human IgG1, kappa, V domains shown)
VH: QVQLVESGGGLVQPGGSLRLSCSASGIDLSSYAMGWVRQAPGKGLEYIGTINIGGRVYYASWAKGRFTISRDNSKNTLYLQMNSLRAEDTAVYYCARYYNGGSYDIWGQGTLVTVSS
VL: DIQMTQSPSTLSASVGDRVTITCQASESIYRVLAWYQQKPGKAPKLLIYDTSTLASGVPSRFSGSGSGTEFTLTISSLQCDDAATYYCQGGYYADSYGIAFGGGTKVEIKR
notes: Humanized anti-human mesothelin with unpaired cysteine at LCcys80; parental mAb in Biacore
Take B3: the Kd in experiment [1] stood at 4.2 nM.

B4: 201C15-xi (antibody, human IgG1, kappa, V domains shown)
VH: QSVKESGGRLVTPGTPLTLTCTVSGIDLSSYAMGWFRQAPGKGLEYIGTINIGGRVYYASWAKGRFTISRTSTTVDLKAPSLTAEDTATYFCARYYNGGSYDIWGPGTLVTVSL
VL: DVVMTQTPASASEPVGGTVTIKCQASESIYRVLAWYQQKPGQPPKLLIYDTSTLASGAPSRFKGSGYGTEFTLTISGVQCEDAATYYCQGGYYADSYGIAFGGGTEVVVKR
notes: as for B1
Take B4: the Kd in experiment [1] came to 1.1 nM.

B5: MORAb-003 (antibody, human IgG1, kappa, V domains shown)
VH: EVQLVESGGGVVQPGRSLRLSCSASGFTFSGYGLSWVRQAPGKGLEWVAMISSGGSYTYYADSVKGRFAISRDNAKNTLFLQMDSLRPEDTGVYFCARHGDDPAWFAYWGQGTPVTVSS
VL: DIQLTQSPSSLSASVGDRVTITCSVSSSISSNNLHWYQQKPGKAPKPWIYGTSNLASGVPSRFSGSGSGTDYTFTISSLQPEDIATYYCQQWSSYPYMYTFGQGTKVEIKR
notes: Humanized anti-human folate receptor alpha, unconjugated; also called farletuzumab
For B5, the EC50 in experiment [2] is 0.00629 µg/mL and 0.04 nM.

B6: MORAb003-ER1236941 (antibody, human IgG1, kappa, V domains shown)
VH: B5 VH
VL: B5 VL
modifications: NHS-(CH2)5-Val-Cit-pAB-eribulin on lysines, sites not given
notes: Antibody-drug conjugate; DAR 0.77 (LC-MS)
In the case of B6, the EC50 in experiment [2] is 0.013 µg/mL and 0.09 nM.

B7: MORAb003-ER1159569 (Lot NB3142-62A) (antibody, human IgG1, kappa, V domains shown)
VH: B5 VH
VL: B5 VL
modifications: Mal-PEG2-Val-Cit-pAB-eribulin on interchain cysteines, sites not given
notes: Antibody-drug conjugate; also called MORAb-003-VCP-eribulin
For B7, the EC50 in experiment [2] is 0.12 nM and 0.0182 µg/mL.

B8: MORAb003-ER1237505 (antibody, human IgG1, kappa, V domains shown)
VH: B5 VH
VL: B5 VL
modifications: Mal-PEG4-triazole-PEG3-sulfonamide-pAB-eribulin on interchain cysteines, sites not given
notes: Antibody-drug conjugate
Take B8: the EC50 in experiment [2] was 0.0183 µg/mL and 0.12 nM.

B9: MORAb003-ER1237504 (antibody, human IgG1, kappa, V domains shown)
VH: B5 VH
VL: B5 VL
modifications: Mal-PEG4-triazole-PEG3-disulfide-pAB-eribulin on interchain cysteines, sites not given
notes: Antibody-drug conjugate
For the molecule B9, the EC50 in experiment [2] is 0.0298 µg/mL and 0.2 nM.

B10: MORAb003-DBCO-ER1138856 (antibody, human IgG1, kappa, V domains shown)
VH: B5 VH
VL: B5 VL
modifications: NHS-PEG4-DBCO on lysines, then azide-PEG3-sulfonamide-pAB-eribulin by SPAAC; sites not given
notes: Antibody-drug conjugate
For B10, in experiment [2], the EC50 is 0.015 µg/mL and 0.1 nM.

B11: MORAb003-ER1235638 (antibody, human IgG1, kappa, V domains shown)
VH: B5 VH
VL: B5 VL
modifications: Mal-(CH2)5-Val-Cit-pAB-eribulin on interchain cysteines, sites not given
notes: Antibody-drug conjugate
In the case of B11, in experiment [2], the EC50 is 0.0153 µg/mL and 0.1 nM.

B12: MORAb003-ER1242287 (antibody, human IgG1, kappa, V domains shown)
VH: B5 VH
VL: B5 VL
modifications: Mal-PEG8-Val-Cit-pAB-eribulin on interchain cysteines, sites not given
notes: Antibody-drug conjugate
Consider B12, for which, in experiment [2], the EC50 was 0.0215 µg/mL and 0.14 nM.

B13: MORAb003-ER1244623 (antibody, human IgG1, kappa, V domains shown)
VH: B5 VH
VL: B5 VL
modifications: NHS-PEG3-triazole-PEG3-sulfonamide-pAB-eribulin on lysines, sites not given
notes: Antibody-drug conjugate; DAR 0.55 (LC-MS)
For the molecule B13, the EC50 in experiment [2] is 0.00454 µg/mL and 0.03 nM.

B14: MORAb003-ER1231691 (antibody, human IgG1, kappa, V domains shown)
VH: B5 VH
VL: B5 VL
modifications: NHS-PEG2-Ala-Ala-Asn-pAB-eribulin on lysines, sites not given
notes: Antibody-drug conjugate; DAR 0.37 (LC-MS)
In the case of B14, the EC50 in experiment [2] was 0.0115 µg/mL and 0.08 nM.

B15: MORAb003-ER1231679 (antibody, human IgG1, kappa, V domains shown)
VH: B5 VH
VL: B5 VL
modifications: Mal-PEG2-Ala-Ala-Asn-pAB-eribulin on interchain cysteines, sites not given
notes: Antibody-drug conjugate
Regarding B15, the EC50 in experiment [2] was 0.0183 µg/mL and 0.12 nM.

B16: MORAb003-ER1243700 (antibody, human IgG1, kappa, V domains shown)
VH: B5 VH
VL: B5 VL
modifications: NHS-PEG3-triazole-PEG3-Val-Cit-pAB-eribulin on lysines, sites not given
notes: Antibody-drug conjugate preparation; DAR 0.00 (LC-MS)
As to B16, the EC50 in experiment [2] was 0.00622 µg/mL and 0.04 nM.

B17: MORAb003-ER1242288 (antibody, human IgG1, kappa, V domains shown)
VH: B5 VH
VL: B5 VL
modifications: NHS-PEG9-Val-Cit-pAB-eribulin on lysines, sites not given
notes: as for B16
Consider B17, for which the EC50 in experiment [2] is 0.0144 µg/mL and 0.1 nM.

B18: MORAb003-DBCO-PEG2 eribulin (antibody, human IgG1, kappa, V domains shown)
VH: B5 VH
VL: B5 VL
modifications: NHS-PEG4-DBCO on lysines, then azido-PEG2-eribulin by SPAAC; sites not given
notes: Antibody-drug conjugate
B18: the half-maximal effective concentration (EC50) in experiment [2] was 0.0191 µg/mL and 0.13 nM.

B19: MORAb003-ER1231690 (antibody, human IgG1, kappa, V domains shown)
VH: B5 VH
VL: B5 VL
modifications: Mal-PEG2-(Ala-Ala-Asn-pAB)2-eribulin on interchain cysteines, sites not given
notes: Antibody-drug conjugate
Consider B19, for which the EC50 in experiment [2] was 0.00892 µg/mL and 0.06 nM.

B20: MORAb003-PEG2-eribulin (antibody, human IgG1, kappa, V domains shown)
VH: B5 VH
VL: B5 VL
modifications: Mal-PEG2-eribulin (non-cleavable) on interchain cysteines, sites not given
notes: Antibody-drug conjugate
Take B20: the EC50 in experiment [2] was 0.00696 µg/mL and 0.05 nM.

B21: MORAb003-ER1244129 (antibody, human IgG1, kappa, V domains shown)
VH: B5 VH
VL: B5 VL
modifications: NHS-PEG3-triazole-PEG3-disulfide-pAB-eribulin on lysines, sites not given
notes: Antibody-drug conjugate; DAR 0.24 (LC-MS)
B21: the concentration giving a half-maximal response (EC50) in experiment [2] is 0.0143 µg/mL and 0.1 nM.

B22: MORAb003-ER1159569 (Lot NB3073-88L) (antibody, human IgG1, kappa, V domains shown)
VH: B5 VH
VL: B5 VL
modifications: Mal-PEG2-Val-Cit-pAB-eribulin on interchain cysteines, sites not given
notes: as for B7
On to B22, for which the EC50 in experiment [2] was 0.0226 µg/mL and 0.15 nM.

B23: MORAb003-DBCO-ER1237508 (antibody, human IgG1, kappa, V domains shown)
VH: B5 VH
VL: B5 VL
modifications: NHS-PEG4-DBCO on lysines, then azide-PEG3-disulfide-pAB-eribulin by SPAAC; sites not given
notes: Antibody-drug conjugate
In the case of B23, the EC50 in experiment [2] is 0.0241 µg/mL and 0.16 nM.

B24: MORAb003-ER1236940 (antibody, human IgG1, kappa, V domains shown)
VH: B5 VH
VL: B5 VL
modifications: NHS-PEG2-Val-Cit-pAB-eribulin on lysines, sites not given
notes: Antibody-drug conjugate; DAR 0.72 (LC-MS)
For B24, in experiment [2], the EC50 is 0.017 µg/mL and 0.11 nM.

B25: MORAb003-DBCO-PEG4 VCP eribulin (antibody, human IgG1, kappa, V domains shown)
VH: B5 VH
VL: B5 VL
modifications: NHS-PEG4-DBCO on lysines, then azido-PEG4-Val-Cit-pAB-eribulin by SPAAC; sites not given
notes: Antibody-drug conjugate
B25: in experiment [2], the EC50 is 0.016 µg/mL and 0.11 nM.

B26: MORAb003-PEG4-eribulin (antibody, human IgG1, kappa, V domains shown)
VH: B5 VH
VL: B5 VL
modifications: Mal-PEG4-eribulin (non-cleavable) on interchain cysteines, sites not given
notes: Antibody-drug conjugate
For B26, the EC50 in experiment [2] is 0.00931 µg/mL and 0.06 nM.

B27: MORAb003-DBCO-PEG4 eribulin (antibody, human IgG1, kappa, V domains shown)
VH: B5 VH
VL: B5 VL
modifications: NHS-PEG4-DBCO on lysines, then azido-PEG4-eribulin by SPAAC; sites not given
notes: Antibody-drug conjugate
Consider B27, for which, in experiment [2], the EC50 is 0.0133 µg/mL and 0.09 nM.

B28: 346C6-zu (antibody, human IgG1, kappa, V domains shown)
VH: EVQLVESGGGLVQPGGSLRLSCAASGFSLSSYAMIWVRQAPGKGLEWIGTISTGGITYYASWAKGRFTISRDNSKNTLYLQMNSLRAEDTAVYYCARGGYAASSAYYLPYYFDLWGQGTLVTVSS
VL: DIQMTQSPSSLSASVGDRVTITCQSSQSVYNNNNLAWYQQKPGKVPKLLIYLASTLASGVPSRFSGSGSGTDFTLTISSLQCEDAATYYCLGGCDDDADTFAFGGGTKVEIKR
notes: as for B3
On to B28, for which the Kd in experiment [1] was 6.9 nM.
